Measurements: patent publication US20240408194A1 (ARIZONA BOARD OF REGENTS ON BEHALF OF ARIZONA STATE …, published 2024)

Biological target: spike B1.17 (SARS-CoV-2)

B1: LCB1 protein (designed binder)
chain: DKEWILQKIYEIMRLLDELGHAEASMRVSDLIYEFMKKGDERLLEEAERLLEEVER
With B1 the Kd was 0.27 nM.
